We go through 1 substance from article PMC4792069.

For the test, the target named is LAP-tagged hMps1 (LAP-Mps1), stably expressed from a BAC (human) (UniProt P33981). The test is described as follows: fluorescence cross-correlation spectroscopy.
Sequence of UniProt P33981 (P33981 whole entry): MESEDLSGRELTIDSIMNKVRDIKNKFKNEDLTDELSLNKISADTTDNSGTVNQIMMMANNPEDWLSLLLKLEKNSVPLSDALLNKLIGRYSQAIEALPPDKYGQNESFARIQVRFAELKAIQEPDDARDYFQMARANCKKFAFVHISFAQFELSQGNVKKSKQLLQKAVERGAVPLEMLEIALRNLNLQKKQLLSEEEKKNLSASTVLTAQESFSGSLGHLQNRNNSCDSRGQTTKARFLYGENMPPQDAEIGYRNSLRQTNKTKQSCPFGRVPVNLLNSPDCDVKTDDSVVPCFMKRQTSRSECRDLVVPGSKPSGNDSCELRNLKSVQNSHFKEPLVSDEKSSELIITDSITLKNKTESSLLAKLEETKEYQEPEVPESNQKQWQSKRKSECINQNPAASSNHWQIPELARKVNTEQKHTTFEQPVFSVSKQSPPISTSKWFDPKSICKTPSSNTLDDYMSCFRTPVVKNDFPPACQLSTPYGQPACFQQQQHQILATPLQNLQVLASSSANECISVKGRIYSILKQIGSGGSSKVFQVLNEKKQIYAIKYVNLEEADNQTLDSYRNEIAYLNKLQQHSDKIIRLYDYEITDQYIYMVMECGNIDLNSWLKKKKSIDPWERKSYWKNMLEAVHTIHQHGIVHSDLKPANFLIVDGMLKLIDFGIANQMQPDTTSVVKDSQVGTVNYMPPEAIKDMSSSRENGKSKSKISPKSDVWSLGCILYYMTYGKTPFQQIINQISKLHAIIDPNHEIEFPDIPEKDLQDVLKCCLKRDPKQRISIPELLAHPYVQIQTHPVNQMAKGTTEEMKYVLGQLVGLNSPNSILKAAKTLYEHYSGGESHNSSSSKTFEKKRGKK

Regarding “mCherry-tagged ARHGEF17 (ARHGEF17-mCherry), Q96PE2 1-2063”, the normalized cross-correlation (FCCS) was 12.4%.
